Source: the DeepSol protein solubility set

assay: soluble on expression in E. coli; label from the status in PepcDB or PDB records

Q: With “MKIIGSMGKKTENLKIDAKKSFLKRIAKNVKVSEGERAVEDILRCIYRNQPISTKKIGQYVKLPLPIVSKVRSILERESLLKRDDKGAVLSKKGIDFVENELGLKLKSDMKCPVCSGRNIVFDEKFEKILKKHKTYAKLRPQVNTMIDQSFATPETATARAAIMADRGDLEGKRVLFVGDDDLASIPTAMTGLCSEVVVLDIDDRLLKLISEVSKKENLNIRTVKWDFKNELPSEFVNKFDTIFTDPPYTLNGAVLFMSRGIEALGDNGILYLAFSHKPVEEYIELQKSINNMNFLIYELIPGFNFYEGTEIIGNTTFLARLVGKNLKKIEVNSEKIYTGELKPTLRYYQCMNCKKIHEVGNKVKRIEDLTCECGGKKFSMIKRAKVKQK” as the sequence, how does the “soluble on expression in E. coli” value read?
A: The value was “not soluble”.

Q: With “MSGQSLTDRITAAQHSVTGSAVSKTVCKATTHEIMGPKKKHLDYLIQCTNEMNVNIPQLADSLFERTTNSSWVVVFKSLITTHHLMVYGNERFIQYLASRNTLFNLSNFLDKSGLQGYDMSTFIRRYSRYLNEKAVSYRQVAFDFTKVKRGADGVMRTMNTEKLLKTVPIIQNQMDALLDFNVNSNELTNGVINAAFMLLFKDAIRLFAAYNEGIINLLEKYFDMKKNQCKEGLDIYKKFLTRMTRISEFLKVAEQVGIDRGDIPDLSQAPSSLLDALEQHLASLEGKK” as the sequence, how does the “soluble on expression in E. coli” value read?
A: Its value is “soluble”.

Q: For “MDKSELFLTFEAKVKGKKINLPDLKIADGVISTEALASALNASAAIAPDAFQRIIKQAYDANIMFLIQQAQIRAQEINKGEVKDWKDLVANAKDAPNQDVTVEVQAYASPDGGVELNEKLSEQREKNTTTALKKQFQKSNIKDVEINAHYTAQDWEGFKQLVEKSDIQDKELVLRVLSMYPDPEQREQEIKNISTVFRQLADDILPQLRRSRLIANVEIIGKSDDEIKRLAAQNPGRLTVEELLYSATLLESPAQKE”, which “soluble on expression in E. coli” value is on record?
A: The value was “not soluble”.

Q: With “MIDERDKIILEILEKDARTPFTEIAKKLGISETAVRKRVKALEEKGIIEGYTIKINPKKLGYSLVTITGVDTKPEKLFEVAEKLKEYDFVKELYLSSGDHMIMAVIWAKDGEDLAEIISNKIGKIEGVTKVCPAIILEKLK” as the sequence, how does the “soluble on expression in E. coli” value read?
A: Its value is “soluble”.

Q: Which “soluble on expression in E. coli” value does the source give for “THPVEAAERNYERARAELNQANEDVARNQERQAKAVQVYNSRKSELDAANKTLADAIAEIKQFNRFAHDPMAGGHRMWQMAGLKAQRAQTDVNNKQAAFDAAAKEKSDADAALSAAQERRKQKENKEKDAKDKLD” here?
A: Its value is “soluble”.

Q: With “MLQKDPCLDDILENSEKLENNSNKKNIDSIDTIKLSDIIEKMIEINSIVRIEKIFEEKIVSQNPVVNVVVNDGSARGLLSLWSEQISLLNELNEGDAILIENAHAPKKYKDRIHLALSKSGKISKIESDLPTIDELLKKSSAQRNDFSRKSISELKEGIGAELRGLIVAIHSKEPYFPVCDKCNKKMTLKKGYAVCKCGNKVDEEDENLKWLFLCTCTLDDGSGTIRVTLNNNTNYLDLEELKKIIIDDEEILDVLNNKLLGLDILTSGFTIYDEYLKDTAFRCNNWNKIDIMEEFNKKLKGLEHHHHHH” as the sequence, how does the “soluble on expression in E. coli” value read?
A: Its value is “soluble”.

Q: Which “soluble on expression in E. coli” value does the source give for “MKSVFVESTIFEKYRDEYLSDEEYRLFQAELMLNPKLGDVIQGTGGLRKIRVASKGKGKRGGSRIIYYFLDEKRRFYLLTIYGKNEMSDLNANQRKQLMAFMEAWRNEQS” here?
A: The value was “not soluble”.

Q: With “MGSDKIHHHHHHMSCKAFQGQTLREHIEAMLAAWEIVKNKYIPSIIRVMKTVGVKFTEEDADKFMKTLIILHDVGKCSEVYQKHLSNNEPLRGFRHELVSAYYAYNILKDMFKDETIAFIGALVVMMHHEPILMGQIRSLDKEELTPEVVLDKLRTFNGVMEGTESFIKSMIKEKLGVIPKVPSPTQEDVLREVIRLSVLARHRPDSGKLRMVVGALLIPLVLCDYKGAKEREGESPKFAEVLRVEMMK” as the sequence, how does the “soluble on expression in E. coli” value read?
A: Its value is “not soluble”.

Q: With “MGSDKIHHHHHHAADHVKGDGKLTSKKISVADYNEIKVDGVIDFNYEQSDDPSTVEVTVDQNLHPYVNIEVKDRVLTIAFKGAKVDHFTKFIVKTNSKWLAAAKVSGNANFMVNSPLTGDETVIKANANSLVQLKETVTVGKLDLNVSGSANMVVNHLEADKIECDIDGSGSITIKKGNAKEGDYSIVSSGDIHAFGLAVPQLSCKVTGNGLAEVHATDNLKANVVGKGNIRYKGPTAVQQRIIGKGTVEEVKE” as the sequence, how does the “soluble on expression in E. coli” value read?
A: Its value is “not soluble”.

Q: Which “soluble on expression in E. coli” value does the source give for “ENLGATVIPASTGNTEKHVRLIRDLGITGIACTPSYALYLAEVVERMGLTKNDINLRIGAFGAEPWTESMRKEIEERLGLKGYNIYGLSEIMGPGVSYECQEQH” here?
A: The value was “not soluble”.

Q: For “MSKIELKQLSFAYDNQEALLFDQANITMDTNWKLGLIGRNGRGKTTLLRLLQKQLDYQGEILHQVDFVYFPQTVAEEQQLTYYVLQEVTSFEQWKLERELTLLNVDPEVLWRPFSSLSGGEKTKVLLGLLFIEENAFPLIDEPTNHLDLAGRQQVAEYLKKKKHGFILVSHDRAFVDEVVDHILAIEKSQLTLYQGNFSIYEEQKKLRDAFELAENEKIKKEVNRLKETARKKAEWSMNREGDKYGNAKEKGSGAIFDTGAIGARAARVMKRSKHIQQRAETQLAEKEKLLKDLEYIDSLSMDYQPTHHKTLLTVEELRLGYEKNWLFAPISFSINAGEIVGITGKNGSGKSSLIQYLLDNFSGDSEGEATLAHQLTISYVRQDYEDNQGTLSEFAEKNQLDYTQFLNNLRKLGMERAVFTNRIEQMSMGQRKKVEVAKSLSQSAELYIWDEPLNYLDVFNHQQLEALILSVKPAMLVIEHDAHFMKKITDKKIVLKS”, which “soluble on expression in E. coli” value is on record?
A: Its value is “not soluble”.

Q: With “MVLGLASFPESLSSQSETATQPRRPSVKWDLGSDYRKGTEETTASGSNFRRERLDSQPDLGLHVQPQIYFLRPRSPLPKLLFSLMNTNDANVKKLLPKSHLSRVIIRDNLNAQRICEMEMKASDKTKRKMSYLYDHLKKKFMMDQLRKMIRWRRDSQSTQDYLDKERV” as the sequence, how does the “soluble on expression in E. coli” value read?
A: Its value is “not soluble”.

Q: For “MGSDKIHHHHHHMSIMNFSEYQTQALKTDQIPAVEGTELMIPLLGLVGEVGSLMTEYKKHLRDGDAHKLFKEGIAEELGDMLWYISNLASKFNLNLEEIAEDNLRKCRDRWGWRDSAQIEDKGTTYIFDNDFPENESLPRQFEVEITEISKDNSIKMKAFINKKQVGNDLTDNSYTSDGYRFHDVFHFSYAAVLGWSAVTRSMLKRKRKSNSSIDEVEDGGRAIAIEEGISALIFSYAKNHGFLERVSTLDYQILKTIKNMTCHLEVSQCSLGDWEKAILMGYDVWRQVEKNRGGRVVLDLDARLITYLKKSSLCSASVEIKH”, which “soluble on expression in E. coli” value is on record?
A: Its value is “not soluble”.

Q: For “PRRTDADGEKMLAYLNTLYADKQAFELRADSLRKEVRQRLGIDTLLAQCVNSTPILSKIRKFDGYTVQNFALETLPGLYVCGSVYTPQSKGKHALIICPNGHFGGGRYREDQQQRMGTLARMGAVCVDYDLFGWGESILQVGSTAHRSSAAHTIQAMNGLLILDYMLASRKDIDTKRIGANGGSGGGTHTVLLTTLDDRFTASAPVVSLASHFDGGCPCESGMPIQLSAGGTCNAELAATFAPRPQLVVSDGGDWTASVPALEFPYLQRIYGFYDAKDNVTNVHLPKEKHDFGPNKRNAVYDFFAEVFD”, which “soluble on expression in E. coli” value is on record?
A: Its value is “not soluble”.

Q: For “RAGYWEWNVENGTILIDRQWAVISGYNSADFDMLTMEQWRELCHPADLGVVTKSIEELLDGSMERLELELRVRHKNGEWIRVLDCGKVTGRSK”, which “soluble on expression in E. coli” value is on record?
A: The value was “not soluble”.

Q: With “MEFKDFPLKPEILEALHGRGLTTPTPIQAAALPLALEGKDLIGQARTGTGKTLAFALPIAERLAPSQERGRKPRALVLTPTRELALQVASELTAVAPHLKVVAVYGGTGYGKQKEALLRGADAVVATPGRALDYLRQGVLDLSRVEVAVLDEADEMLSMGFEEEVEALLSATPPSRQTLLFSATLPSWAKRLAERYMKNPVLINVIK” as the sequence, how does the “soluble on expression in E. coli” value read?
A: The value was “soluble”.

Q: Which “soluble on expression in E. coli” value does the source give for “MSLSSSCIEEVSVPDDNWYRIANELLSRADITINGSAPSDIRVKNPDFFKRVLQEGSLGLGESYMDGWWECERLDIFFSKVLRAGLENQLPHHVKDTLRILGARLINLQSKKRAWIVGKEHYDLGNDLFSRMLDPYMQYSCAYWKDADTLEAAQQAKLKLICEKLQLQPGMRVLDIGCGWGGLSQYMATHYGVSVVGVTISAEQQKMAQTRCEGLDVSILLEDYRDLNDQFDRIVSVGMFEHVGPKNYNTYFEVVDRNLKPDGLFLLHTIGSKKTDHNVDPWINKYIFPNGCLPSVRQIAEASESHFVMEDWHNFGADYDTTLMAWHERFINAWPEIAGNYNERFKRMFSYYLNACAGAFRARDIQLWQVVFTRGVENGLRVPREGHHHHHH” here?
A: Its value is “soluble”.

Q: For “MGYESMLADIKSSLNGKISDVEDKIEKLKKAKKDIDTLQEEAITEIKEIVKPELGKHWTGTKADDFDKGREEAKSEASKIVNDKYNEYMASINGKIFDLEWDKAKYASELFIANGAADLLKKGEEFAEEVGNTISKLKWWLEHHHHHH”, which “soluble on expression in E. coli” value is on record?
A: Its value is “soluble”.
